We go through three molecules from PMC5385343, “Crystal Structure of Glyceraldehyde-3-Phosphate Dehydrogenase from the Gram-Positive Bacterial Pathogen A. vaginae, an Immunoevasive Factor that Interacts with the Human C5a Anaphylatoxin” (Frontiers in Microbiology, 2017).

Data set [1] deals with T1, AvGAPDH (Fannyhessea vaginae, UniProt F1T6A5).
T1 construct: gene gap; full-length, 356 residues, N-terminal His6 tag and TEV site (tag removal not described), pET21b, E. coli Rosetta(DE3)pLysS; homotetramer
The data set can be described thus: X-ray crystal structure, […] Å. Type of data set: binding. As to conditions: crystallised with 0.6 mM NAD+, 0.1 M sodium citrate pH 5.5, 20% PEG 3000; one NAD+ per protomer, active site.

The test system of data set [2] is NC(=O)c1ccc[n+]([C@@H]2O[C@H](COP(=O)(O)OP(=O)(O)OC[C@H]3O[C@@H](n4cnc5c(N)ncnc54)[C@H](O)[C@@H]3O)[C@@H](O)[C@H]2O)c1. In words: purified protein. As to conditions: 40 mM Tris-HCl pH 8.5, 2 mM EDTA, 25 °C, 0.1 μM enzyme, NAD+ varied 0.03-2 mM, co-substrates G3P and Pi, fixed concentrations not given, varied: cofactor.
Data set [3] has as its system O=CC(O)COP(=O)(O)O. The data set can be described thus: purified protein. As to conditions: 40 mM Tris-HCl pH 8.5, 2 mM EDTA, 25 °C, 0.1 μM enzyme, G3P varied 0.6-15 mM, co-substrates NAD+ and Pi, fixed concentrations not given.
Data set [4] deals with the molecule itself. The data set can be described thus: crystal structure.

As for `NC(=O)c1ccc[n+]([C@@H]2O[C@H](COP(=O)(O)OP(=O)(O)OC[C@H]3O[C@@H](n4cnc5c(N)ncnc54)[C@H](O)[C@@H]3O)[C@@H](O)[C@H]2O)c1` [NAD^+], the “X-ray crystal structure, 2.19 Å” value in data set [1] was “NAD^+ molecules are tightly bound in an elongated cleft in all four protomers”.

For orientation: Km means the substrate concentration at which the rate is half of its maximum. A word on the Vmax: it is the rate approached at saturating substrate. One may read the kcat as the number of substrate molecules converted per active site and unit of time at saturation. A word on the kcat/Km: it is the second-order rate constant that governs catalysis at low substrate concentration. In the case of AvGAPDH (Fannyhessea vaginae DSM 15829), in data set [2], the Michaelis constant (Km) turned out to be 80 ± 30 µM, the Vmax stood at 186000 µM/min/mg, the kcat was 31 ± 3 s⁻¹ and the kcat/Km turned out to be 384000 ± 150000 M⁻¹ s⁻¹. In data set [3], the Michaelis-Menten constant (Km) was determined as 2600 ± 500 µM, the Vmax amounted to 342000 µM/min/mg, the kcat amounted to 57 ± 6 s⁻¹ and the catalytic efficiency (kcat/Km) was determined as 22000 ± 5000 M⁻¹ s⁻¹.

B1: D-glyceraldehyde-3-phosphate dehydrogenase from Atopobium vaginae, full-length, hexahistidine-tagged (enzyme)
chain: MKEDRLPANLAKGESMAVKVAINGFGRIGRLAFRQMFGHEGSEIVAINDLTDPKMLANLLKYDSSQGNYARNHSVVAGEDSITVDGKTIKIYKEADAHNLPWGELNVDVVLECTGFYTSKAKAQAHIDAGAKKVVISAPAGKDLPTIVYNVNHEILTKDDNIISAASCTTNCLAPMAKALNDFAPIQSGIMSTIHAFTGDQMVLDGPHRKGDLRRARAAAINIVPNSTGAAKAIGLVIPELNGKLIGSAQRVPVPTGSTTLLFAVVKSDKEITVDSINAAMKAASDPETFGYNEDPIVSSDIIGMTYGSLFDATQTMVQDLGNGLYQVEVVSWYDNENSYTSQMVRTIKYFEKFVA
notes: also called AvGAPDH; GAPDH from A. vaginae; source: E. coli Rossetta(DE3)pLysS, purified (HisTrap, Superdex 200)
Usually stoichiometry N stands for the number of molecules, sites or subunits per partner or assembly. B1: the “stoichiometry N” value in data set [4] was found to be 4.
